Test results as given in patent US20220177587A1, “METHODS AND USES OF VARIANT CD80 FUSION PROTEINS AND RELATED CONSTRUCTS” (Alpine Immune Sciences, Inc., priority 2018, published 2022).
Residue numbers refer to the chain shown, from its start. Names and notes keep the numbering of the source.

B1: variant CD80 IgV-Fc (inert) H18F/A26P/E35D/M47I/V68M/A71G/D90G (Fc fusion)
chain: VIHVTKEVKEVATLSCGFNVSVEELPQTRIYWQKDKKMVLTMMSGDINIWPEYKNRTIFDITNNLSIMILGLRPSDEGTYECVVLKYEKGAFKREHLAEVTLSVKAD
B2: variant CD80 IgV-Fc (inert) H18F/A26N/E35D/M47V/V68M/A71G/D90K (Fc fusion)
chain: B1 chain with P26N, I47V, G90K
B3: variant CD80 IgV-Fc (inert) H18Y/A26P/E35D/M47Y/V68I/A71G/D90G (Fc fusion)
chain: B1 chain with F18Y, I47Y, M68I
B4: variant CD80 IgV-Fc (inert) H18F/A26D/E35D/D46E/M47T/V68M/A71G/D90G (Fc fusion)
chain: B1 chain with P26D, D46E, I47T
B5: CD80 L70Q/A91G/T110A/I118V/T120S/T130A ECD-Fc (Fc fusion)
chain: VIHVTKEVKEVATLSCGHNVSVEELAQTRIYWQKEKKMVLTMMSGDMNIWPEYKNRTIFDITNNLSIVIQALRPSDEGTYECVVLKYEKDGFKREHLAEVTLSVKADFPAPSISDFEVPSSNIRRIICSASGGFPEPHLSWLENGEELNAINTTVSQDPETELYAVSSKLDFNMTTNHSFMCLIKYGHLRVNQTFNWNTTKQEHFPDN
B6: CD80 V22A/L70Q/S121P ECD-Fc (Fc fusion)
chain: B5 chain with V22A, G91A, A110T, V118I, S120T, S121P, A130T
B7: CD80 A12V/S15F/Y31H/M38L/T41G/M43L/D90N/T130A/P137L/N149D/N152T ECD-Fc (Fc fusion)
chain: VIHVTKEVKEVVTLFCGHNVSVEELAQTRIHWQKEKKLVLGMLSGDMNIWPEYKNRTIFDITNNLSIVILALRPSDEGTYECVVLKYEKNAFKREHLAEVTLSVKADFPTPSISDFEIPTSNIRRIICSASGGFPELHLSWLENGEELDAITTTVSQDPETELYAVSSKLDFNMTTNHSFMCLIKYGHLRVNQTFNWNTTKQEHFPDN
B8: CD80 I67F/L70R/E88G/A91G/I118V/T120S/T130A ECD-Fc (Fc fusion)
chain: B5 chain with I67F, Q70R, E88G, A110T
B9: CD80 A91G/F92L/F108L/I118V/T120S ECD-Fc (Fc fusion)
chain: B5 chain with Q70L, F92L, F108L, A110T, A130T
B10: CD80 E24G/R29D/Y31L/Q33H/K36G/M38I/T41A/M43R/M47T/F59L/E81V/L85R/K89N/A91T/F92P/K93V/R94L/H96R/N149S/C182S ECD-Fc (Fc fusion)
chain: VIHVTKEVKEVATLSCGHNVSVEGLAQTDILWHKEGKIVLAMRSGDTNIWPEYKNRTILDITNNLSIVILALRPSDEGTYVCVVRKYENDTPVLERLAEVTLSVKADFPTPSISDFEIPTSNIRRIICSTSGGFPEPHLSWLENGEELSAINTTVSQDPETELYAVSSKLDFNMTTNHSFMSLIKYGHLRVNQTFNWNTTKQEHFPDN
B11: CD80 R29V/M43Q/E81R/L85I/K89R/D90L/A91E/F92N/K93Q/R94G ECD-Fc (Fc fusion)
chain: VIHVTKEVKEVATLSCGHNVSVEELAQTVIYWQKEKKMVLTMQSGDMNIWPEYKNRTIFDITNNLSIVILALRPSDEGTYRCVVIKYERLENQGEHLAEVTLSVKADFPTPSISDFEIPTSNIRRIICSTSGGFPEPHLSWLENGEELNAINTTVSQDPETELYAVSSKLDFNMTTNHSFMCLIKYGHLRVNQTFNWNTTKQEHFPDN
B12: CD80 K36G/K37Q/M38I/L40M ECD-Fc (Fc fusion)
chain: B5 chain with K36G, K37Q, M38I, L40M, Q70L, G91A, A110T, V118I, S120T, A130T

What was measured:
CD28 (human) [1] = molecular target: CD28 (human) (UniProt P10747); experiment: flow cytometry, Jurkat cells (CD28)
human CTLA-4 (human) [2] = molecular target: human CTLA-4 (human) (UniProt P16410); experiment: flow cytometry, CHO cells stably expressing CTLA4
Chain of human CTLA-4 (human) (P16410 36-223): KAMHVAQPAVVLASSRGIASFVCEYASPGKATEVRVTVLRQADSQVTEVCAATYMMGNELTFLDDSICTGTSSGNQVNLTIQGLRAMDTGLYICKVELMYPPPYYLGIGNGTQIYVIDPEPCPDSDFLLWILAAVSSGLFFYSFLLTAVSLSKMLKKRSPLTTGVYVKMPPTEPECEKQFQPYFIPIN

CD28 (human) [3] = molecular target: CD28 (human) (UniProt P10747); experiment: flow cytometry, Jurkat cells (CD28); MFI over CD80 WT IgV-Fc
human CTLA-4 (human) [4] = molecular target: human CTLA-4 (human) (UniProt P16410); experiment: flow cytometry, CHO/CTLA4 cells; MFI over CD80 WT IgV-Fc
human PD-L1 (human) [5] = molecular target: human PD-L1 (human) (UniProt Q9NZQ7); experiment: flow cytometry, CHO cells stably expressing PD-L1
Chain of human PD-L1 (human) (Q9NZQ7 19-290): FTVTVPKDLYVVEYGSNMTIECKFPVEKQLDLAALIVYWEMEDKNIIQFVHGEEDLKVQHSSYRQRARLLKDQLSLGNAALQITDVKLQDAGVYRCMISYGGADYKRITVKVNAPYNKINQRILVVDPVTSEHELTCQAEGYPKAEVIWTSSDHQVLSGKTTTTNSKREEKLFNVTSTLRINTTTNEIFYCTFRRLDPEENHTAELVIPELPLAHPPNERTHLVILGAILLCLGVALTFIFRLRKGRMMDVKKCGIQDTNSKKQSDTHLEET

human PD-L1 (human) [6] = molecular target: human PD-L1 (human) (UniProt Q9NZQ7); experiment: flow cytometry, CHO/PD-L1 cells; MFI over CD80 WT IgV-Fc
human PD-L1 (human) [7] = molecular target: human PD-L1 (human) (UniProt Q9NZQ7); experiment: flow cytometry, Expi293F cells transfected with PD-L1
CD28 (human) [8] = molecular target: CD28 (human) (UniProt P10747); experiment: flow cytometry, Expi293F cells transfected with CD28
human CTLA-4 (human) [9] = molecular target: human CTLA-4 (human) (UniProt P16410); experiment: flow cytometry, Expi293F cells transfected with CTLA-4

| Binder | MFI at 33.3 nM (CD28 (human) [1]) [MFI] | MFI at 33.3 nM (human CTLA-4 (human) [2]) [MFI] | Fold change to WT CD80 (CD28 (human) [3]) [fold] | Fold change to WT CD80 (human CTLA-4 (human) [4]) [fold] | MFI at 33.3 nM (human PD-L1 (human) [5]) [MFI] | Fold change to WT CD80 (human PD-L1 (human) [6]) [fold] | MFI (human PD-L1 (human) [7]) [MFI] | parental ratio (human PD-L1 (human) [7]) | MFI (CD28 (human) [8]) [MFI] | parental ratio (CD28 (human) [8]) | MFI (human CTLA-4 (human) [9]) [MFI] | parental ratio (human CTLA-4 (human) [9]) |
| --- | --- | --- | --- | --- | --- | --- | --- | --- | --- | --- | --- | --- |
| B1 | 4800 | 23900 | 47.1 | 17.3 | 32300 | 196 | – | – | – | – | – | – |
| B2 | 3170 | 15200 | 31.1 | 11 | 22400 | 136 | – | – | – | – | – | – |
| B3 | 1820 | 8280 | 17.8 | 6 | 27300 | 165 | – | – | – | – | – | – |
| B4 | 6030 | 17200 | 59.1 | 12.4 | 27500 | 167 | – | – | – | – | – | – |
| B5 | – | – | – | – | – | – | 5 | 0.07 | 8 | 0.09 | 14 | 0.07 |
| B6 | – | – | – | – | – | – | 5 | 0.07 | 5 | 0.06 | 7 | 0.04 |
| B7 | – | – | – | – | – | – | 5 | 0.08 | 6 | 0.06 | 6 | 0.03 |
| B8 | – | – | – | – | – | – | 6 | 0.08 | 5 | 0.05 | 6 | 0.03 |
| B9 | – | – | – | – | – | – | 16 | 0.11 | 50 | 0.53 | 128 | 0.61 |
| B10 | – | – | – | – | – | – | 1120 | 0.06 | 1070 | 0.08 | 1020 | 0.02 |
| B11 | – | – | – | – | – | – | 1580 | 0.09 | 1030 | 0.08 | 996 | 0.02 |
| B12 | – | – | – | – | – | – | 959 | 0.05 | 1170 | 0.09 | 1400 | 0.03 |
